Patent US20110202000A1 (MEDTRONIC, published 2011)

Experiments:
[1] = biological target: T1, Abeta42 beta amyloid peptide (UniProt P05067 672-713); assay: competition ELISA on coated beta amyloid, NS0 supernatant; competitor biotinylated mouse 6E10
T1 construct: domain: Abeta42; also called Aβ42; beta amyloid (Covance)
Procedure: 100 μl of the antibody mixes were transferred into the wells of Immulon Maxisorb plates precoated with 0.06125 μg/ml Abeta₄₂ beta amyloid peptide coated plates and incubated at room temperature for 1 hour. The plate was washed, and bound biotinylated mouse 6E10 was detected by adding a strepavidin-HRP conjugate (Sigma, Poole UK) (diluted at 1:500) and OPD substrate (Sigma, Poole UK). The assay was developed in the dark for 5 minutes before being stopped by the addition of 3M HCl. The assay plate was then read in a MRX TCII plate reader at absorbance 490 nm.
(§1) Binding of humanized variants were tested in the competition binding ELISA described in Example 1. Briefly, supernatants from the best expressing lines for each combination were quantified using an Fc capture, Kappa light chain detection ELISA in comparison to a IgG1/kappa standard. The quantified supernatants were then tested in a competition ELISA for binding to their target antigen, beta amyloid. 96 well maxisorb plates (Nunc-Fisher Scientific, Loughborough, UK) were coated overnight at 4° C. with 50 μl/well of 0.06125 μg/ml beta amyloid (Covance, UK) in carbonate buffer pH 9.6. […] The titrations, 50 μl/well, were added to washed (3× with PBS pH 7.4/0.5%BSA/0.05% Tween 20) assay plates and incubated at room temperature for 1 hour. Plates were washed as above and 100 μl/well of a 1/500 dilution of streptavidin HRP (Sigma, Poole, UK) in PBS pH 7.4/0.5% BSA/0.05% Tween was added and incubated for a further 1 hour at room temperature. […] After stopping the reaction with 50 μl/well 3M HCl, absorbance was measured at 450 nm and the binding curves of the test antibodies were compared to the mouse reference standard. Absorbance was plotted against sample concentration and straight lines were fitted through each of the data sets.

[2] = biological target: T1, Abeta42 beta amyloid peptide; assay: competition ELISA on coated beta amyloid, purified antibody, n=2; competitor biotinylated chimeric mouse 6E10
Procedure: as §1
The purified antibodies were tested for binding to beta amyloid via competition ELISA as described above (n=2). Titrations of the test antibodies were done from 0.003 μg/ml to 16 μg/ml in duplicate. Absorbance at 450 nm was measured and this was plotted against test antibody concentration.

[3] = biological target: T1, Abeta42 beta amyloid peptide; assay: competition ELISA on coated beta amyloid, purified antibody (Table 4 experiment)
Procedure: as §1, with “hour.” for “hour. Plates were washed as above and 100 μl/well of a 1/500 dilution of streptavidin HRP (Sigma, Poole, UK) in PBS pH 7.4/0.5% BSA/0.05% Tween was added and incubated for a further 1 hour at room temperature.”
The purified antibodies were tested for binding to beta amyloid via competition ELISA as described above (n=2). […] Absorbance at 450 nm was measured and this was plotted against test antibody concentration.

Aβ40 peptide = biological target: T2, Aβ40 peptide (UniProt P05067 672-711); assay: western immunoblot of Aβ40 peptide, antibody at 1000-fold dilution
T2 construct: domain: Aβ40; also called amyloid beta
T2 sequence (P05067 672-711 limits assumed): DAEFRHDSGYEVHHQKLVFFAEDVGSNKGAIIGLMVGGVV
Procedure: (§2) The resulting conjugated antibodies (IgG and F(ab)₂ fragments) were subjected to dialysis to separate conjugated from unconjugated antibodies. The conjugated IgG antibodies were tested for their ability to bind amyloid beta (Aβ40 and Aβ42), using a western immunoblotting assay. In brief, Aβ40 or Aβ42 peptides (0.5 μg in diluent; Covance) were diluted in 4 μl nanopure water and prepared with 2× sample buffer to run through 4-20% Pierce Precise Protein Gel at 55V for 15 min, and then at 100V for 55 min. The proteins were then transferred onto 0.2 μm nitrocellulose membrane at 6V for 30 min. The membrane was blocked with a solution of dried milk powder (5% in Tris-buffered saline with Tween20; TBST, 1 L distilled water, 8 g NaCl, 2.4 g Tris, pH 7.5 with HCl, 1 mL Tween20). Membranes were then incubated overnight with a 1000-fold dilution of unconjugated or PSA-conjugated 6E10 IgG or F(ab′)₂ preparations, washed thrice with TBST for 5 min each, incubated with 1:2000 dilution of HRP-conjugated goat anti-mouse secondary antibody, and washed twice again with TBST for 10 min each. The chemiluminescent signal was developed with ECL-Plus reagent and the membranes were exposed to Kodak films to illustrate the bands.

[4] = biological target: T1, Abeta42 beta amyloid peptide; assay: western immunoblot of Aβ42 peptide, antibody at 1000-fold dilution
Procedure: as §2

T1 sequence (P05067 672-713 limits assumed): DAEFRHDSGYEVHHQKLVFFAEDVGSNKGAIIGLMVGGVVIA

| Binder | fold difference in IC50 relative to mouse 6E10 (Binding Efficiencies Relative to Mouse MDT-2007) [1] [fold] | Fold Difference (IC50 normalized to the reference) [2] [fold] | IC50 [2] [µg/mL] | further results |
| --- | --- | --- | --- | --- |
| MDT-2007 (composite human antibody sequence variant VH4/VK2) (antibody, V domains shown, Human IgG1/kappa (pANT15/pANT13)) VH: QVQLVQSGAEVKKPGASVKVSCTASGFNIKDTYIHWVRQARGQRLEWIGRFDPVNVNTRYDSRFRGRVTITSDASTNTAYMELSSLRSEDTAVYYCSRSYYNGRRRFTYWGQGTLVTVSS VL: DIVMTQSPSSLTASVGDRVTITCKASQSLLSSGNQKNYLTWYQQKPGQPPKLLIYWASIRESGVPDRFTGSGSGTFFTLTISSLQAEDVAVYYCQNDYNYPFTFGQGTKLEIK | 0.67 | 0.57 | 2.1 | fold increase in binding compared to the mouse reference [3]: 1.72 fold |
| PSA-conjugated 6E10 IgG anti-Aβ antibody (antibody, V domains shown, polysialic acid (PSA) conjugated; site and chain not stated; polysialic acid (PSA, 30 to 90 sialic acid units) conjugated by periodate oxidation and sodium cyanoborohydride; site and chain not stated, also called PSA-conjugated IgG anti-Aβ; conjugated IgG antibodies) VH: EVQLQQSGAELVKPGASVKLSCTASGFNIKDTYIHWVKQRPEQGLEWIGRFDPVNVNTRYDSRFRGKATITSDASSNTAYLHLNSLTSEDTAVYYCSRSYYNGRRRFTYWGQGTLVTVSA VL: DIVMTQSPSSLTVTAGEKVALTCKASQSLLSSGNQKNYLTWYQQKPGQPPKLLIYWASIRESGVPDRFTGSGSGTFFTLTISSVQAEDLAVYYCQNDYNYPFTFGSGTKLEIK | – | – | – | binding result (Aβ40 peptide): binds; binding result [4]: binds |
| chimeric 6E10 antibody (mouse 6E10 V regions, human IgG1/kappa constant regions) (antibody, V domains shown, also called chimeric mouse 6E10 antibody; chimeric antibody) VH: EVQLQQSGAELVKPGASVKLSCTASGFNIKDTYIHWVKQRPEQGLEWIGRFDPVNVNTRYDSRFRGKATITSDASSNTAYLHLNSLTSEDTAVYYCSRSYYNGRRRFTYWGQGTLVTVSA VL: DIVMTQSPSSLTVTAGEKVALTCKASQSLLSSGNQKNYLTWYQQKPGQPPKLLIYWASIRESGVPDRFTGSGSGTFFTLTISSVQAEDLAVYYCQNDYNYPFTFGSGTKLEIK | – | 1 | 3.6 | – |
| composite human antibody variant VH5/VK3 (antibody, human IgG1, V domains shown, Human IgG1/kappa (pANT15/pANT13); Tested as quantified NS0 supernatant) VH: QVQLVQSGAEVKKPGASVKVSCTASGFNIKDTYIHWVRQARGQRLEWIGRFDPVNVNTRYDSRFRGRVTITSDASTSTAYMELSSLRSEDTAVYYCSRSYYNGRRRFTYWGQGTLVTVSS VL: DIVMTQSPSSLTASVGDRVTITCKASQSLLSSGNQKNYLTWYQQKPGQPPKLLIYWASIRESGVPDRFSGSGSGTDFTLTISSLQAEDVAVYYCQNDYNYPFTFGQGTKLEIK | 1.02 | – | – | – |
| composite human antibody variant VH1/VK1 (antibody, human IgG1, V domains shown, Human IgG1/kappa (pANT15/pANT13); Tested as quantified NS0 supernatant) VH: EVQLVQSGAELKKPGASVKVSCTASGFNIKDTYIHWVRQAPGQRLEWIGRFDPVNVNTRYDSRFRGRATITSDASTNTAYMELSSLRSEDTAVYYCSRSYYNGRRRFTYWGQGTLVTVSS VL: DIVMTQSPDSLTVSLGERATINCKASQSLLSSGNQKNYLTWYQQKPGQPPKLLIYWASIRESGVPDRFTGSGSGTFFTLTISSLQAEDVAVYYCQNDYNYPFTFGQGTKLEIK | 0.78 | – | – | – |
| composite human antibody variant VH4/VK3 (antibody, human IgG1, V domains shown, Human IgG1/kappa (pANT15/pANT13); Tested as quantified NS0 supernatant) VH: QVQLVQSGAEVKKPGASVKVSCTASGFNIKDTYIHWVRQARGQRLEWIGRFDPVNVNTRYDSRFRGRVTITSDASTNTAYMELSSLRSEDTAVYYCSRSYYNGRRRFTYWGQGTLVTVSS VL: DIVMTQSPSSLTASVGDRVTITCKASQSLLSSGNQKNYLTWYQQKPGQPPKLLIYWASIRESGVPDRFSGSGSGTDFTLTISSLQAEDVAVYYCQNDYNYPFTFGQGTKLEIK | 1.36 | – | – | – |
| composite human antibody variant VH5/VK2 (antibody, human IgG1, V domains shown, Human IgG1/kappa (pANT15/pANT13)) VH: QVQLVQSGAEVKKPGASVKVSCTASGFNIKDTYIHWVRQARGQRLEWIGRFDPVNVNTRYDSRFRGRVTITSDASTSTAYMELSSLRSEDTAVYYCSRSYYNGRRRFTYWGQGTLVTVSS VL: DIVMTQSPSSLTASVGDRVTITCKASQSLLSSGNQKNYLTWYQQKPGQPPKLLIYWASIRESGVPDRFTGSGSGTFFTLTISSLQAEDVAVYYCQNDYNYPFTFGQGTKLEIK | 0.72 | 0.72 | 2.6 | – |
| composite human antibody variant VH1/VK3 (antibody, human IgG1, V domains shown, Human IgG1/kappa (pANT15/pANT13); Tested as quantified NS0 supernatant) VH: EVQLVQSGAELKKPGASVKVSCTASGFNIKDTYIHWVRQAPGQRLEWIGRFDPVNVNTRYDSRFRGRATITSDASTNTAYMELSSLRSEDTAVYYCSRSYYNGRRRFTYWGQGTLVTVSS VL: DIVMTQSPSSLTASVGDRVTITCKASQSLLSSGNQKNYLTWYQQKPGQPPKLLIYWASIRESGVPDRFSGSGSGTDFTLTISSLQAEDVAVYYCQNDYNYPFTFGQGTKLEIK | 1.93 | – | – | – |
| composite human antibody variant VH4/VK1 (antibody, human IgG1, V domains shown, Human IgG1/kappa (pANT15/pANT13)) VH: QVQLVQSGAEVKKPGASVKVSCTASGFNIKDTYIHWVRQARGQRLEWIGRFDPVNVNTRYDSRFRGRVTITSDASTNTAYMELSSLRSEDTAVYYCSRSYYNGRRRFTYWGQGTLVTVSS VL: DIVMTQSPDSLTVSLGERATINCKASQSLLSSGNQKNYLTWYQQKPGQPPKLLIYWASIRESGVPDRFTGSGSGTFFTLTISSLQAEDVAVYYCQNDYNYPFTFGQGTKLEIK | 0.94 | 1.14 | 4.1 | – |
| composite human antibody variant VH2/VK3 (antibody, human IgG1, V domains shown, Human IgG1/kappa (pANT15/pANT13); Tested as quantified NS0 supernatant) VH: EVQLVQSGAEVKKPGASVKVSCTASGFNIKDTYIHWVRQARGQRLEWIGRFDPVNVNTRYDSRFRGRATITSDASTNTAYMELSSLRSEDTAVYYCSRSYYNGRRRFTYWGQGTLVTVSS VL: DIVMTQSPSSLTASVGDRVTITCKASQSLLSSGNQKNYLTWYQQKPGQPPKLLIYWASIRESGVPDRFSGSGSGTDFTLTISSLQAEDVAVYYCQNDYNYPFTFGQGTKLEIK | 0.96 | – | – | – |
| composite human antibody variant VH3/VK3 (antibody, human IgG1, V domains shown, Human IgG1/kappa (pANT15/pANT13); Tested as quantified NS0 supernatant) VH: QVQLVQSGAEVKKPGASVKVSCTASGFNIKDTYIHWVRQARGQRLEWIGRFDPVNVNTRYDSRFRGRATITSDASTNTAYMELSSLRSEDTAVYYCSRSYYNGRRRFTYWGQGTLVTVSS VL: DIVMTQSPSSLTASVGDRVTITCKASQSLLSSGNQKNYLTWYQQKPGQPPKLLIYWASIRESGVPDRFSGSGSGTDFTLTISSLQAEDVAVYYCQNDYNYPFTFGQGTKLEIK | 1.57 | – | – | – |
| composite human antibody variant VH5/VK1 (antibody, human IgG1, V domains shown, Human IgG1/kappa (pANT15/pANT13)) VH: QVQLVQSGAEVKKPGASVKVSCTASGFNIKDTYIHWVRQARGQRLEWIGRFDPVNVNTRYDSRFRGRVTITSDASTSTAYMELSSLRSEDTAVYYCSRSYYNGRRRFTYWGQGTLVTVSS VL: DIVMTQSPDSLTVSLGERATINCKASQSLLSSGNQKNYLTWYQQKPGQPPKLLIYWASIRESGVPDRFTGSGSGTFFTLTISSLQAEDVAVYYCQNDYNYPFTFGQGTKLEIK | 0.8 | 0.91 | 3.3 | – |
| composite human antibody variant VH2/VK2 (antibody, human IgG1, V domains shown, Human IgG1/kappa (pANT15/pANT13); Tested as quantified NS0 supernatant) VH: EVQLVQSGAEVKKPGASVKVSCTASGFNIKDTYIHWVRQARGQRLEWIGRFDPVNVNTRYDSRFRGRATITSDASTNTAYMELSSLRSEDTAVYYCSRSYYNGRRRFTYWGQGTLVTVSS VL: DIVMTQSPSSLTASVGDRVTITCKASQSLLSSGNQKNYLTWYQQKPGQPPKLLIYWASIRESGVPDRFTGSGSGTFFTLTISSLQAEDVAVYYCQNDYNYPFTFGQGTKLEIK | 1.1 | – | – | – |
